The values below come from the RNAGym collection of RNA variant scans (doi:10.7554/elife.80360).

B1: CPEB3 Ribozyme (parent)
chain: GGGGGCCACAGCAGAAGCGUUCACGUCGCGGCCCCUGUCAGAUUCUGGUGAAUCUGCGAAUUCUGCUGU

In the data set the parent is B1. As to the kind of experiment: self-cleavage, relative activity (ratio to wild type); higher = more cleavage; co-transcriptional.
Regarding GAGGGCCACAGCAGAAGCGUUCACGUCGCGGCCCCUGUCUGAUUCUGGUGAAUCUGCGAAUUCUGCUGU [G2A A40U], the self-cleavage is 0.0585. As to GAGGGCCACAACAGAAGCGUUCACGUCGCGGCCCCUGUCAGAUUCUGGUGAAUCUGCGAAUUCUGCUGU [G2A G11A], the self-cleavage was found to be 0.101. GAGGGCCACACCAGAAGCGUUCACGUCGCGGCCCCUGUCAGAUUCUGGUGAAUCUGCGAAUUCUGCUGU [G2A G11C]: the self-cleavage was 0.0914. As for GAGGGCCACAUCAGAAGCGUUCACGUCGCGGCCCCUGUCAGAUUCUGGUGAAUCUGCGAAUUCUGCUGU [G2A G11U], the self-cleavage was found to be 0.117. The same measure for GAGGGCCACAGCAGAAGCGUUCACGUCGCGGCCCCUGUCAGUUUCUGGUGAAUCUGCGAAUUCUGCUGU [G2A A42U]: 0.0966. To GAGGGCCACAGCAGAAGCGUUCACGUCGCGGCCCCUGUCAGCUUCUGGUGAAUCUGCGAAUUCUGCUGU [G2A A42C] belongs 0.0844; to GAGGGCCACAGCAGAAGCGUUCACGUCGCGGCCCCUGUCAGAUUCUGGUGAAUCUGCGACUUCUGCUGU [G2A A60C], 0.0397. To GAGGGCCGCAGCAGAAGCGUUCACGUCGCGGCCCCUGUCAGAUUCUGGUGAAUCUGCGAAUUCUGCUGU [G2A A8G] belongs 0.105; to GAGGGCCUCAGCAGAAGCGUUCACGUCGCGGCCCCUGUCAGAUUCUGGUGAAUCUGCGAAUUCUGCUGU [G2A A8U], 0.199.

In the case of GAGGGCCACAGCAGAAGCGUUCACGUCGCGGCCCCUGUCAGAUUCUGGUGAAUCUGCGUAUUCUGCUGU [G2A A59U], the self-cleavage turned out to be 0.0616. The same measure for GAGGGCCACAGCAGAAGCGUUCACGUCGCGGCCCCUGUCAGAUUCUGGUGAAUCUGCGCAUUCUGCUGU [G2A A59C]: 0.0548. The same measure for GAGGGCCACAGCAGAAGCGUUCACGUCGCGGCCCCUGUCAGAUUCUGGUGAAUCUGCGGAUUCUGCUGU [G2A A59G]: 0.129; for GAGGGCCACAGCAGAAGCGUUCACGUCGCGGCCCGUGUCAGAUUCUGGUGAAUCUGCGAAUUCUGCUGU [G2A C35G]: 0.0841; for GAGGGCCACAGCAGAAGCGUUCACGUCGCGGCCCUUGUCAGAUUCUGGUGAAUCUGCGAAUUCUGCUGU [G2A C35U]: 0.542.

For GAGGGCCACAGCAGAAGCGUUCACGUCGCGGCCCAUGUCAGAUUCUGGUGAAUCUGCGAAUUCUGCUGU [G2A C35A], the self-cleavage was determined as 0.0641. As for GAGGGCCACAGCAGAUGCGUUCACGUCGCGGCCCCUGUCAGAUUCUGGUGAAUCUGCGAAUUCUGCUGU [G2A A16U], the self-cleavage stood at 0.1. The same measure for GAGGGCCACAGCAGAAGCGUUCACGUCGCGGCCCCUGUCAGAUUCUGGUGAAUCUGGGAAUUCUGCUGU [G2A C57G]: 0.047. To GAGGGCCACAGCAGAAGCGUUCACGUCGCGGCCCCUGUCAGAUUCUGGUGAAUCUGUGAAUUCUGCUGU [G2A C57U] belongs 0.0401; to GAGGGCCACAGCAGAAGCGUUCACGUCGCGGCCCCUGUCAGAUUCUGGUGAAUCUGAGAAUUCUGCUGU [G2A C57A], 0.0762. As for GAGGGCCACAGCAGUAGCGUUCACGUCGCGGCCCCUGUCAGAUUCUGGUGAAUCUGCGAAUUCUGCUGU [G2A A15U], the self-cleavage was 0.0881. The same measure for GAGGGCCACAGCAGCAGCGUUCACGUCGCGGCCCCUGUCAGAUUCUGGUGAAUCUGCGAAUUCUGCUGU [G2A A15C]: 0.0708. The same measure for GAGGGCCACAGCAGAAGCGUUCACGUCGCGGCCCCUGUAAGAUUCUGGUGAAUCUGCGAAUUCUGCUGU [G2A C39A]: 0.032; for GAGGGCCACAGCAGAAGCGUUCACGUCGCGGCCCCUGUUAGAUUCUGGUGAAUCUGCGAAUUCUGCUGU [G2A C39U]: 0.072; for UGGGGCCACAGCAGAAGCGUUCACGUCGCGGCCCCUGUCAGAUUCUGGUGAAUCUGCGAAUUCUGCGGU [G1U U67G]: 0.204. The same measure for UGGGGCCACAGCAGAAGCGUUCACGUCGCGGCCCCUGUCAGAUUCUGGUGAAUCUGCGAAUUCUGCAGU [G1U U67A]: 0.167. With UGGGGCCACAGCAGAAGCGUUCACGUCGCGGCCCCUGUCAGAUUCUGGUGAAUCUGCGAAUUCUGCCGU [G1U U67C], the self-cleavage came out at 0.0935.

In the case of GAGGGCCACAGCAGAAGCGUUCACGUCGCGGCCCCUGUCAGAUUCUGGUGAUUCUGCGAAUUCUGCUGU [G2A A52U], the self-cleavage was found to be 0.12. The same measure for GAGGGCCACAGCAGAAGCGUUCACGUCGCGGCCCCUGUCAGAUUCUGGUGAGUCUGCGAAUUCUGCUGU [G2A A52G]: 0.242.

In the case of GAGGGCCACAGCAGAAGCGUUCACGUCGCGGCCCCUGUCAGAUUGUGGUGAAUCUGCGAAUUCUGCUGU [G2A C45G], the self-cleavage is 0.217. For the variant GAGGGCCACAGCAGAAGCGUUCACGUCGCGGCACCUGUCAGAUUCUGGUGAAUCUGCGAAUUCUGCUGU [G2A C33A], the self-cleavage came to 0.0406. Turning to GAGGGCCACAGCAGAAGCGUUCACGUCGCGGCUCCUGUCAGAUUCUGGUGAAUCUGCGAAUUCUGCUGU [G2A C33U], the self-cleavage was found to be 0.0941. Turning to GAGGGCCACAGCAGAAGCGUUCACGUUGCGGCCCCUGUCAGAUUCUGGUGAAUCUGCGAAUUCUGCUGU [G2A C27U], the self-cleavage turned out to be 0.0441. To GAGGGCCACAGCAGAAGCGUUCACGUAGCGGCCCCUGUCAGAUUCUGGUGAAUCUGCGAAUUCUGCUGU [G2A C27A] belongs 0.0442. The same measure for GAGGGCCACAGCAGAAGCGUUCACGUGGCGGCCCCUGUCAGAUUCUGGUGAAUCUGCGAAUUCUGCUGU [G2A C27G]: 0.0739; for GAGGGCCACAGCAGAAGCGUUCACGUCGCGGUCCCUGUCAGAUUCUGGUGAAUCUGCGAAUUCUGCUGU [G2A C32U]: 0.0612. GAGGGGCACAGCAGAAGCGUUCACGUCGCGGCCCCUGUCAGAUUCUGGUGAAUCUGCGAAUUCUGCUGU [G2A C6G]: the self-cleavage is 0.0574.

For the variant GAGGGACACAGCAGAAGCGUUCACGUCGCGGCCCCUGUCAGAUUCUGGUGAAUCUGCGAAUUCUGCUGU [G2A C6A], the self-cleavage is 0.044. Take GAGGGUCACAGCAGAAGCGUUCACGUCGCGGCCCCUGUCAGAUUCUGGUGAAUCUGCGAAUUCUGCUGU [G2A C6U]: the self-cleavage is 0.0868. The same measure for GAGGGCCACAGCCGAAGCGUUCACGUCGCGGCCCCUGUCAGAUUCUGGUGAAUCUGCGAAUUCUGCUGU [G2A A13C]: 0.109.
